Sequences and labels used below:
B1: HDV Ribozyme (parent)
chain: GGCCGGCAUGGUCCCAGCCUCCUCGCUGGCGCCGGCUGGGCAACAUUCCGAGGGGACCGUCCCCUCGGUAAUGGCGAAUGGGACCCA

Variants of B1 are the subject of this data set. In words: self-cleavage, relative activity (ratio to wild type); higher = more cleavage; co-transcriptional.
Turning to GGCCGGCAUGGUCCCAGCCUCCUCGCUCGCGCCGGCUGGGCAACAUUCCGAGGGGACCGUCCCGUCGGUAAUGGCGAAUGGGACCCA, the self-cleavage was found to be 0.0791.

As to GGCCGGCAUGGUCCCAGCCUCCUCGCUAGCGCCGGCUGGGCAACAUUCCGAGGGGACCGUCCCCUCGGUAACGGCGAAUGGGACCCA, the self-cleavage amounted to 0.101.

Consider GGCCGGCAUGGUCCCAGCCUCCUCGCUAGCGCCGGCUGGGCAACAUUCCGAGGGGACCGUCCCCUCGGUAAAGGCGAAUGGGACCCA, for which the self-cleavage is 0.119.

Turning to GGCCGGCAUGGUCCCAGCCUCCUCGCUCGCGCCGGUUGGGCAACAUUCCGAGGGGACCGUCCCCUCGGUAAUGGCGAAUGGGACCCA, the self-cleavage was found to be 0.145.

For GGCCGGCAUGGUCCCAGCCUCCUCGCUAGCGCCGGCUGGGCAACAGUCCGAGGGGACCGUCCCCUCGGUAAUGGCGAAUGGGACCCA, the self-cleavage stood at 0.0665.

In the case of GGCCGGCAUGGUCCCAGCCUCCUCGCUCGCGCCGGCUGGGCAACUUUCCGAGGGGACCGUCCCCUCGGUAAUGGCGAAUGGGACCCA, the self-cleavage is 0.142.

For GGCCGGCAUGGUCCCAGCCUCCUCGCUCGCGCGGGCUGGGCAACAUUCCGAGGGGACCGUCCCCUCGGUAAUGGCGAAUGGGACCCA, the self-cleavage came out at 0.0519.

Turning to GGCCGGCAUGGUCCCAGCCUCCUCGCUCGCGCCGGCUGGGCAACAUUCCGAGGGGACGGUCCCCUCGGUAAUGGCGAAUGGGACCCA, the self-cleavage was 0.0475.

Consider GGCCGGCAUGGUCCCAGCCUCCUCGCUCGCGCCGGCUGGGCAACAUUCCGAGGGGACAGUCCCCUCGGUAAUGGCGAAUGGGACCCA, for which the self-cleavage is 0.166.

Consider GGCCGGCAUGGUCCCAGCCUCCUCGCUCGCGUCGGCUGGGCAACAUUCCGAGGGGACCGUCCCCUCGGUAAUGGCGAAUGGGACCCA, for which the self-cleavage came out at 0.19.

Consider GGCCGGCAUGGUCCCAGCCUCCUCGCUCGCGCCGGCUGGGCAACAUUCCGAGGGGACCGUCCCCUCGGUAAUGGGGAAUGGGACCCA, for which the self-cleavage was found to be 0.113.

As to GGCCGGCAUGGUCCCAGCCUCCUCGCUAGCGCCGGCUGGGCAACAUUCCGAGGGGACCGUCCCCUCGGUAAUGGCGAAAGGGACCCA, the self-cleavage is 0.

GGCCGGCAUGGUCCCAGCCUCCUCGCUCGCGCCGGCUGGGCAACAUUCCGAGGGGACCGUCCCCUCGGUACUGGCGAAUGGGACCCA: the self-cleavage came to 0.0475.

Consider GGCCGGCAUGGUCCCAGCCUCCUCGCUCGCGCCGGCUGGGCAACAUUCCGAGGGGACCGUCCCCUCGGUAAUGGCGAUUGGGACCCA, for which the self-cleavage was 0.0811.

With GGCCGGCAUGGUCCCAGCCUCCUCGCUCGUGCCGGCUGGGCAACAUUCCGAGGGGACCGUCCCCUCGGUAAUGGCGAAUGGGACCCA, the self-cleavage came to 0.0791.

Take GGCCGGCAUGGUCCCAGCCUCCUCGCUCGCGCCGGCUGGGAAACAUUCCGAGGGGACCGUCCCCUCGGUAAUGGCGAAUGGGACCCA: the self-cleavage was determined as 0.0573.

On to GGCCGGCAUGGUCCCAGCCUCCUCGCUCGCGCCGGCUGGGCAACAUUCCGAGGGGACCGUCGCCUCGGUAAUGGCGAAUGGGACCCA, for which the self-cleavage came to 0.0536.

Turning to GGCCGGCAUGGUCCCAGCCUCCUCGCUCGCGCCGGCUGGGCAACAUUCCGAGGGGACCGUCACCUCGGUAAUGGCGAAUGGGACCCA, the self-cleavage came out at 0.0346.

GGCCGGCAUGGUCCCAGCCUCCUCGCUCGCGCCGGCUGGGCAACAUUCCGAGGGGACCGUCCCCUCGGUAAUGGCGGAUGGGACCCA: the self-cleavage was found to be 0.119.

GGCCGGCAUGGUCCCAGCCUCCUCGCUCGCGCCGGCUGGGCAACAUUCCGUGGGGACCGUCCCCUCGGUAAUGGCGAAUGGGACCCA: the self-cleavage was found to be 0.156.

Turning to GGCCGGCAUGGUCCCAGCCUCCUCGCUCCCGCCGGCUGGGCAACAUUCCGAGGGGACCGUCCCCUCGGUAAUGGCGAAUGGGACCCA, the self-cleavage is 0.0504.

As to GGCCGGCAUGGUCCCAGCCUCCUCGCUCGCGCCGGCUGGGCAACAUUGCGAGGGGACCGUCCCCUCGGUAAUGGCGAAUGGGACCCA, the self-cleavage was determined as 0.138.

On to GGCCGGCAUGGUCCCAGCCUCCUCGCUCGCGCCGGCUGGGCAACAUUCCGAGGGGACCGUCCCCUUGGUAAUGGCGAAUGGGACCCA, for which the self-cleavage came to 0.

Consider GGCCGGCAUGGUCCCAGCCUCCUCGCUCGCGCCGGCUGGGCAACAUUCCGAGGGGACCGUCCCCUAGGUAAUGGCGAAUGGGACCCA, for which the self-cleavage came to 0.122.

Consider GGCCGGCAUGGUCCCAGCCUCCUCGCUCGCGCCGGCUGGGCAACAUUCCGAGGGGACCGUCCCCUCGGUAAUGGCGAAUGGGACCUA, for which the self-cleavage was determined as 0.

On to GGCCGGCAUGGUCCCAGCCUCCUCGCUCGCGCCGGCUGGGCAACAUUCCGAGGGGACCGUCCCCUCGGUAAUGGCGAAUGGGAGCCA, for which the self-cleavage is 0.0332.

Regarding GGCCGGCAUGGUCCCAGCCUCCUCGCUCGCGCCGGCUGGGCAACAUUCCGAGGGGACCGUCCCCUCGGUAAUGGCGAAUGGGAACCA, the self-cleavage was determined as 0.135.

Consider GGCCGGCAUGGUCCCAGCCUCCUCGCUCGCCCCGGCUGGGCAACAUUCCGAGGGGACCGUCCCCUCGGUAAUGGCGAAUGGGACCCA, for which the self-cleavage turned out to be 0.

Regarding GGCCGGCAUGGUCCCAGCCUCCUCGCUCGCACCGGCUGGGCAACAUUCCGAGGGGACCGUCCCCUCGGUAAUGGCGAAUGGGACCCA, the self-cleavage is 0.0739.

Regarding GGCCGGCAUGGUCCCAGCCUCCUCGCUCGCGCCGGCUGGGCAACAUUCCGAGGGGCCCGUCCCCUCGGUAAUGGCGAAUGGGACCCA, the self-cleavage is 0.

Consider GGCCGGCAUGGUCCCAGCCUCCUCGCUCGCGCCGGCUGGGCAACAUUCCGAGGGGACCGUCCCCUCGGUAAUGGCGAAUGGGACGCA, for which the self-cleavage amounted to 0.111.

Consider GGCCGGCAUGGUCCCAGCCUCCUCGCUCGCGCCGGCUGGGCAACAUUCCGAGGGGACCGUCCCCUCGGUAAUGGCGAAUGGGACUCA, for which the self-cleavage was 0.

Source of the values: the RNAGym collection of RNA variant scans (doi:10.7554/elife.80360).
